± gives the standard deviation of the averaged measurements.
Experiments:
[1] = test system: VchCAST RNA-guided transposition machinery (E. coli BL21(DE3) host, lacZ target); assay: relative integration efficiency (T-LR orientation) vs wild-type transposon end (log2 (normalized fold change)); transposon end mutated: right end (5 bp flank + 75 bp right end); higher = more efficient transposition
How it was run: (§1)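 In E. coli BL21(DE3), a T7-driven effector plasmid was paired with a pUC57 mini-transposon donor containing 1549 left-end or 1849 right-end barcoded transposon variants. Cells grew on plates with 0.1 mM IPTG at 37°C for 18 h. Relative integration efficiency was derived from Illumina reads of genomic integration junctions against input plasmids, as a log-transformed output/input barcode fold change normalised to reference barcodes.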

[2] = test system: VchCAST RNA-guided transposition machinery (E. coli BL21(DE3) host, lacZ target); assay: relative integration efficiency (T-RL orientation) vs wild-type transposon end (log2 (normalized fold change)); transposon end mutated: right end (5 bp flank + 75 bp right end); higher = more efficient transposition
How it was run: as §1

## ACATTTGTTGATACAACCATAAAATGATAATGCACCCCATAAATTGATAATTATCACACCCATAAATTGATATTGCCTCTGATCATAGTCAGACCAACATTGCTACGACCCGTATTCGCACCGACAC
[1]
  relative integration efficiency (log2): -0.689 ± 0.18
[2]
  relative integration efficiency (log2): -1.24 ± 0.24

## ACATTTGTTGATACAACCATAAAATGATAATGCCACCCATAAATTGATAATGCTCACACCCATAAATTGATATTTACTCTGATCATAGTCAGACCAACATTGCTACGACCCGTATTCGCACCGACAC
[1]
  relative integration efficiency (log2): -0.0326 ± 0.2
[2]
  relative integration efficiency (log2): -0.867 ± 0.17

## ACATTTGTTGATACAACCATAAAATGATAATGCCACCCATAAATTGATAATTATCACACCCATAAATTGATATTGCCTCTGATCATAGTCAGACCAACATTGCTACGACCCGTATTCGCACCGACAC
[1]
  relative integration efficiency (log2): -0.173 ± 0.33
[2]
  relative integration efficiency (log2): -0.625 ± 0.1

## ACATTTGTTGATACAACCATAAAATGATAATTAACAAACGCCCGGTCGCCGGCGACACAAACGCCCGGTCGCGGTAAGAGGATCATAGTCAGACCAACATTGCTACGACCCGTATTCGCACCGACAC
[1]
  relative integration efficiency (log2): 0.957 ± 0.25
[2]
  relative integration efficiency (log2): -2.3 ± 0.29

## ACATTTGTTGATACAACCATAAAATGATAATTAACAAACGCCCGGTCGCCGGCTCAACAAACGCCCGGTCGCGGTACTCTGATCATAGTCAGACCAACATTGCTACGACCCGTATTCGCACCGACAC
[1]
  relative integration efficiency (log2): 1.12 ± 0.068
[2]
  relative integration efficiency (log2): -1.98 ± 0.26

## ACATTTGTTGATACAACCATAAAATGATAATTAACAAACGCCCGGTCGCCGGCTCACACCCATAAATTGATATTGCCTCTGATCATAGTCAGACCAACATTGCTACGACCCGTATTCGCACCGACAC
[1]
  relative integration efficiency (log2): -0.997 ± 0.22
[2]
  relative integration efficiency (log2): -3.28 ± 0.31

## ACATTTGTTGATACAACCATAAAATGATAATTAACAACATAAATTGATAATTATCACACCCATAAATTGATATTGCCTCTGATCATAGTCAGACCAACATTGCTACGACCCGTATTCGCACCGACAC
[1]
  relative integration efficiency (log2): -0.921 ± 0.31
[2]
  relative integration efficiency (log2): -0.394 ± 0.018

## ACATTTGTTGATACAACCATAAAATGATAATTAACACCCATAAATTGATAATTATCAACAAACGCCCGGTCGCGGTACTCTGATCATAGTCAGACCAACATTGCTACGACCCGTATTCGCACCGACA
[1]
  relative integration efficiency (log2): 1.67 ± 0.2
[2]
  relative integration efficiency (log2): -0.721 ± 0.29

## ACATTTGTTGATACAACCATAAAATGATAATTAACACCCATAAATTGATAATTATCACACCCATAAATTGATATTGCCTCTGATCATAGTCAGACCAACATTGCTACGACCCGTATTCGCACCGACA
[1]
  relative integration efficiency (log2): -0.437 ± 0.21
[2]
  relative integration efficiency (log2): -0.572 ± 0.11

## ACATTTGTTGATACAACCATAAAATGATAATTAACCCCATAAATTGATAATTATCACACCCATAAATTGATATTGCCTCTGATCATAGTCAGACCAACATTGCTACGACCCGTATTCGCACCGACAC
[1]
  relative integration efficiency (log2): -0.881 ± 0.17
[2]
  relative integration efficiency (log2): -0.822 ± 0.075

## ACATTTGTTGATACAACCATAAAATGATAATTAATAACACCCATAAATTGATAATTATCAACAAACGCCCGGTCGCGGTACTCTGATCATAGTCAGACCAACATTGCTACGACCCGTATTCGCACCG
[1]
  relative integration efficiency (log2): 0.892 ± 0.16
[2]
  relative integration efficiency (log2): -2.52 ± 0.17

## ACATTTGTTGATACAACCATAAAATGATAATTAATAACACCCATAAATTGATAATTATCACACCCATAAATTGATATTGCCTCTGATCATAGTCAGACCAACATTGCTACGACCCGTATTCGCACCG
[1]
  relative integration efficiency (log2): 0.728 ± 0.12
[2]
  relative integration efficiency (log2): -3.16 ± 0.3

## ACATTTGTTGATACAACCATAAAATGATAATTAATAATCACCCATAAATTGATAATTATCAACAAACGCCCGGTCGCGGTACTCTGATCATAGTCAGACCAACATTGCTACGACCCGTATTCGCACC
[1]
  relative integration efficiency (log2): 0.619 ± 0.018
[2]
  relative integration efficiency (log2): -2.77 ± 0.31

## ACATTTGTTGATACAACCATAAAATGATAATTAATAATCACCCATAAATTGATAATTATCACACCCATAAATTGATATTGCCTCTGATCATAGTCAGACCAACATTGCTACGACCCGTATTCGCACC
[1]
  relative integration efficiency (log2): 0.894 ± 0.13
[2]
  relative integration efficiency (log2): -2.77 ± 0.17

— the supplement of paper PMC10201428
